Measurements reported in patent US12630594B2, “Allergy antigen and epitope for same” (HOYU CO., LTD., priority 2017, dated 2026).

Tested on: IgE antibody in the serum of a fish-allergic patient
Experiment: Immunoblotting of two-dimensional electrophoresis patterns of fish meat proteins with patient serum
Format: binding, human
Conditions: for spots detected by immunoblotting, different from spots with serum of non-fish-allergic subject: proteins contained in salmon meat; for specific binding to IgE antibodies from fish-allergic patients: spots in two-dimensional electrophoresis gel of proteins in fish, patients diagnosed with immediate-type allergy
Procedure: Proteins contained in fish were analyzed by the aforementioned technique to identify antigens of an allergy to fish. To be specific, proteins were extracted from fish meat and subjected to two-dimensional electrophoresis under the conditions described below.
The electrophoresis in the first dimension was isoelectric focusing, which was performed using isoelectric focusing gels with a gel-strip length of 5 to 10 cm and a gel pH range of 3 to 10. The pH gradient of the gels in the direction of electrophoresis was as follows: with the total gel-strip length being taken as 1, the gel-strip length up to pH 5 was “a=0.15 to 0.3”, the gel-strip length from pH 5 to 7 was “b=0.4 to 0.7”, and the gel-strip length above pH 7 was “c=0.15 to 0.3”. More specifically, the isoelectric focusing was performed using the IPG gels, Immobiline Drystrip (pH3-10NL), produced by GE Healthcare Bio-Sciences Corporation (hereinafter abbreviated as “GE”). The electrophoresis system used was IPGphor produced by GE. The maximum current of the electrophoresis system was limited to 75 μA per gel strip. The voltage program adopted to perform the first-dimensional isoelectric focusing was as follows: (1) a constant voltage step was performed at a constant voltage of 300 V until the volt-hours reached 750 Vhr (the current variation width during electrophoresis for 30 minutes before the end of this step was 5 μA); (2) the voltage was increased gradually to 1000 V for 300 Vhr; (3) the voltage was further increased gradually to 5000 V for 4500 Vhr; and then (4) the voltage was held at a constant voltage of 5000 V until the total Vhr reached 12000.
The electrophoresis in the second dimension was SDS-PAGE, which was performed using polyacrylamide gels whose gel concentration at the distal end in the direction of electrophoresis was set to 3 to 6% and whose gel concentration at the proximal end was set to a higher value than that at the distal end. More specifically, the SDS-PAGE was performed using NuPAGE 4-12% Bris-Tris Gels (IPG well, Mini, 1 mm) produced by Life Technologies. The electrophoresis system used was XCell SureLock Mini-Cell produced by Life Technologies. The electrophoresis was run at a constant voltage of 200 V for about 45 minutes using an electrophoresis buffer composed of 50 mM MOPS, 50 mM Tris base, 0.1% (w/v) SDS and 1 mM EDTA.
Identification of antigens by immunoblotting was carried out by taking all the steps up to the step of “Second-dimensional SDS-PAGE” as described above in Example 1, followed by the steps of “Transfer to membrane”, “Immunoblotting” and “Analysis” as described below.
To be specific, proteins in the second-dimensional electrophoresis gels were transferred to a membrane (PVDF membrane) according to the following procedure. • (1) The PVDF membrane was immersed in 100% methanol followed by milliQ water, and then moved into the transfer buffer to hydrophilize the PVDF membrane. • (2) After sponge, filter paper, the second-dimensional electrophoresis gels treated by second-dimensional SDS-PAGE, the hydrophilized PVDF membrane, filter paper, and sponge were put in place in this order, the transfer system was energized at a constant voltage of 30 V for one hour. Immunoblotting
Immunoblotting of the membrane was carried out using, as a primary antibody, a serum sample from patient 1 with a fish allergy or a serum sample from a non-fish-allergic subject. This fish-allergic patient 1 was a patient diagnosed with immediate-type allergy to fish. […]

[1] = serum from fish-allergic patient 3 (FIG. 1B right)
[2] = serum from fish-allergic patient 2 (FIG. 1B left)

specific binding to IgE antibodies from fish-allergic patients	Molecule	spots detected by immunoblotting, different from spots with serum of non-fish-allergic subject [1]	spots detected by immunoblotting, different from spots with serum of non-fish-allergic subject [2]
specific binding to IgE antibodies	Glycogen phosphorylase, muscle form-like (protein, glycogen phosphorylase, muscle form-like) MSKPLSDHDKRKQISVRGLAGVENVAELKVAFNRHLHFTLVKDRNVANKRDYYFALANTVRDHLVGRWIRTQQYYYEKDPKRVYYISLEFYMGRTLQNTMVNLALENACDEAIYQLGLDMEELEDMEEDAGLGNGGLGRLAACFLDSMASLGLAAYGYGIRYEFGIFNQKIVNGWQVEEADDWLRYGNPWEKARPEYMRPVKFYGRTEHTPDGVKWVDTQVVLALPYDTPIPGYRNNIVNTMRLWSAKAPCDFNLKDFNVGGYIQAVLDRNLCENISRVLYPNDNFFEGKELRLKQEYFVVAATLQDVVRRFKASKFGSREIVRTDFAELPNKVAIQLNDTHPAMAIPELMRVLVDEEKLGWDKAWDVCVRTCAYTNHTVLPEALERWPIDLFHHLLPRHLEIIYEINRRFMEYVASKFPGDNDRLRRMSLIEEGGCKKVNMAHLCIVGSHAVNGVARIHSEILIATLFKDFYELDPHKFQNKTNGITPRRWLVMCNPGLAEVIAEKIGEEFIRDLDQLKRLLKFVNDDAFIRDIAKVKQENKLKFAVHLEEHYKVKINPQSMFDFQVKRIHEYKRQLLNCLHMITYYNRIKKEPNKHWTPRTIMVGGKAAPGYHTAKMIIRLITAIGEVVNHDPVVGDRLKVIFLENYRVTLAEKAIPSADLSEQISTAGTEASGTGNMKFMLNGALTIGTMDGANVEMAEEAGEENFFIFGMRVEDVDAMDAGKGYHASEYYNRIPELKQAMDQIAGGFFSPKQPDLFKELVDLLMHHDRFKVFADYEAYIKCQDKVNQLYKNPKEWTKMVIHNIAGCGKFSSDRTIAQYAREIWGMEPSLEKIPAPDEKLK		newly detected
specific binding to IgE antibodies	Alpha-actinin-3 (protein, PREDICTED: alpha-actinin-3) MTAIETQVQYGSYMTSEQVYMTQEDDWDRDLLLDPAWEKQQRKTFTAWCNSHLRKAGTQIENIEEDFRNGLKLMLLLEVISGERLPKPDKGKMRFHKIANVNKALDFICSKGVKLVSIGAEEIVDGNVKMTLGMIWTIILRFAIQDISVEETSAKEGLLLWCQRKTAPYRNVNVQNFHISWKDGLALCALIHRHRPDLIDYSKLRKDDPMGNLNTAFEVAEKYLDIPKMLDAEDIVNTPKPDEKAIMTYVSCFYHAFAGAEQAETAANRICKVLAVNQENEKLMEEYEKLASELLEWIRRTIPWLENRVAEQTMRAMQQKLEDFRDYRRVHKPPKVQEKCQLEINFNTLQTKLRLSNRPAFMPSEGKMVSDIANAWKGLEQVEKGYEEWLLTEIRRLERLDHLAEKFKQKSSLHESWTSGKVELLSMKDYESASLMEIRALMRKHEAFESDLAAHQDRVEQIAAIAQELNELDYHDAVTINARCQGICDQWDNLGTLTQKRRDSLERVEKLWETIDQLYLEFAKRAAPFNNWMDGAMEDLQDMFIVHSIEEIQSLITAHDQFKATLPEADKERVATMGIQNEIVKIAQTYGIKLSGVNPYTNLSPQDITDKWDAVKHLVPLRDQMLQEEVARQQSNERLRRQFAAQANIIGPWIQTKMEEISHVSVDIAGSLEEQMSNLKQYEQNIINYKCNIDKLEGDHQLSQESLIFDNKHTNYTMEHVRVGWEQLLTTIARTINEVENQILTRDAKGISQEQLNEFRASFNHFDRKRNGMMDPDDFRACLISMGYDLGEVEFARIMTLVDSNNTGVVTFQAFIDFMTRETAETDTADQVMASFKILASDKTYITVEELRRELPPEQADYCISRMTSYIGSGAPPGALDYISFSSALYGESDL		

Continued, molecule first:

Molecule	specific binding to IgE antibodies from fish-allergic patients	spots detected by immunoblotting, different from spots with serum of non-fish-allergic subject [1]	spots detected by immunoblotting, different from spots with serum of non-fish-allergic subject [2]
Myosin binding protein H-like (protein, Myosin binding protein H-like) MPAKPAPIKKAAPKEPAPKKEEAPAPAPAEAAPAEVAPPAEVEAPPAEAAPAEAAAPAEAAPTEEKAPAEPAPEQPKAPTPPPPDEPTSEPLEVTVDDKSDTSVTITWRPPKTIPANSGLDGYTVEITKEGTEDWKAANEDLTVSCRYVIKNQTTGDRLLIRVVAVNPGGRSPPATIADPVLVKEVGARPKVRLPRFLRQRYVKKVGEKINIVIPYSGKPKPVVSWLKDGQPLDSKRANIRTSDRDSILFIRQAERVDSGSYEMCVKVDDFEDKAAIIIQIIELPGPPASIKIVDVWGFNVALEWTVPKDNGNTEITGYTVQKADKKTGDWFNILEHYARLNATISDLIMGNTYTFRVFAENKCGLSEECAVTKGEATIVKEVIDYKPTPFVEHDFTEAPKFTTVLNDRSTTVGYSTKLLCSVRGCPKPKIMWMKNKMILNNMDNPKYRMISTGGICTLEIRKPGPYDGGEYVCRAENTLGKVDTGCKLEVRKPGQADADKDKKEQ	specific binding to IgE antibodies	detected	
Myosin-binding protein C, fast-type-like (protein, myosin-binding protein C, fast-type-like) MPEAADAVKPEGEEGEAPAEAEENTAEDDEPLPEGEEGAHQSQEITGLFLQHPETTVAITGTDIVFTAKVDSTTLSRKPTIKWLKGKWLDLGSKAGKHMQFKETFDRATKIYTWDMKIIKVVPGDAGAYRCEVTSKDKCDSSAFDISVEAVQIEEEHDSLAAFKRTDAGEDEGSLDFSALLKATKKKKKPVVDEEKADVWEILKNAQPSEYEKIAFEYGITDLRGLLKRLKKMKTVEPKHSDAFLKRMESAYSVDKGKKIVLQVEVVDPNAQVKWLKNGQEIKSSAKYIIESVGNIRTLTINKCSLADDAAYECVIGEEKSFTEVFVKEPPVTITKLLDDYHVVVGERVEFEVEVSVEGAHVNWMFEDQELSRDTHKYRFKKDGLKHMLIIQEATLDDIGMYWCFTNGGRTKGELEVEEKELEVLQNIADLTVKAEDQAMFKCEVSDEKVTGKWLKDGVEVLPSSRIKLTHIGRIHRLTIDDVKPEDAGDYTFIPDGYALSLSAKLNFLEIKIDYVPRQEPPKIHLDTTGNMVSQNTIIVVAGNKLRLDVEISGEPPPTVVWAKGDTAITAVEGRVRTESRKDLSCFVIEGAEREDEGNYTIIVTNPAGEDKAHLFVKIVDVPDCPENVKCTSVGEDCATMVWDPPKFDGGAPVTGYLMERKKKGSTRWTKLNFDVYEGVTYEAKRMIEGVLYEMRVYAVNGIGMSQPSLNSKPFMPIAATSEPLGLKVHDVTDTTCTLKWLAPEKIGAGGLDGYVIEYCKEGDTEWVVANTELVERQNYTVRNLPTAEKINFRVVAVNIAGRSPPTGLSQPVTIREIVELPKIRLPRYLRQKYIRRVGDKINLTIPFQGKPRPKVQWYKDGEELDTRVASIRNSEVDSILFIRSAERSHSGKYELVLQIENMEARAILEIRIVEAPGPPEVVKVTDVWGFNAALEWKPPKDDGNCEITGYTIQKADKKTNEWFTIYEHNRRTNCTASDLIMGNEYMFRVFSENLVGKSEDFCLSKDTAIIPKIGLEYNPPPFKEKDMQSAPKFIQPLLDRSVVAGYSTTISSAVKTCPKPKIRWLRNKIPLDENPRFLMQNNQGVLTLNIRKPSQYDGGKFTCKAINSLGEDVVECTLLVRALKDKEDGDEK	specific binding to IgE antibodies		newly detected
Desmin (fragment) (protein, Desmin (fragment)) ISSYRRTFGSGIGSTPGMSSMFSHGGRGSSGSAHMSSRVYEMTKSSARPSYSSGSIRSSSGGAMRSYAGMGEKLDFNLADATNRDFLDTRTNEKAELQHLNDRFASYIEKVRFLEQQNATLVVEIERLRGHEPTRVAEMYEEEMRELRRQVDGMSNDRARMEVERDNLADDLQKLKLRLQEVIHQREEAENNLSAFRADVDSATLARLDLERRIESLQEEITFLKKIHEEEIHELTSQMQETSVQVQMDMSKPDLTVALRDIRMQYEGIAAKNISEAEDWYKSKVSDLNQAVNKNNDALRQAKQESMEFRHQIQSYTCEIDSLKGTNESLLRQMREMEDRLGNEAGGYQDSVTRLEAEIAKMKDEMARHLREYQDLLNVKMALDIEIATYRKLLEGEESRITVSGSKSSHSGSHSAASLYSTVGFRETSPDVGRSAEVHSKKTVLIKTIETRDGEVVSE	specific binding to IgE antibodies	detected	
